{"source": "patent US11203773B2", "about": "“Designer ribosomes and methods of use thereof for incorporating non-standard amino acids into polypeptides” (Yale University, priority 2016, dated 2021)", "key": {"N[C@@H](CCC(=O)O)C(=O)O [1]": {"tested_on": "N[C@@H](CCC(=O)O)C(=O)O", "test": "Aminoacylation of 32P-tRNA with α- and β3-amino acids", "format": "biochemical, E. coli", "details": "other: aminoacylation, GluRS"}, "N[C@@H](CCC(=O)O)C(=O)O [2]": {"tested_on": "N[C@@H](CCC(=O)O)C(=O)O", "test": "purified protein, by the assay type", "details": "other: adenylation, GluRS; pH 7.0; 25.0 °C", "method": "Adenylation of α- and β-Amino Acids Catalyzed by E. coli PheRS, GlyRS, MetRS, and GluRS. […] Briefly, assay mixtures (50 μL) assembled at 25° C. contained the requisite α- or β^3-amino acid substrate (between 5 μM and 5 mM) in 100 mM HEPES (pH 7.0) containing 100 mM KCl, 15 mM MgCl2, 2 mM ATP, 0.5 mM NaPPi, and 50 μCi [^32P]-NaPPi). Reactions were initiated upon addition of enzyme (10 nM MetRS, 10 nM PheRS, or 50 nM GlyRS; 100 nM GluRS for reactions with α-Glu or 1.13 μM GluRS for reactions with β^3-Glu), incubated for various times (10 sec to 10 min), and halted by adding a 5 μL reaction aliquot to 100 μL quenching solution (10% charcoal, 0.5% HCl). 50 μL of 200 mM NaPPi in 1.5 N HCl was then added to each quenched reaction to decrease nonspecific binding of pyrophosphate to the charcoal. Each quenched reaction was then filtered through Whatman filter paper (number 3), previously washed with washing solution (200 mM NaPPi in 1 N HCl) using a 96-well BIO-DOT® apparatus (BioRad). Each well of the apparatus was then washed four times with 200 μL aliquots of washing solution (by pipetting washing solution up and down at least 10 times per wash) to minimize nonspecific binding of pyrophosphate to charcoal. Each experimental well was paired with an analogous control well (no-enzyme control) that lacked enzyme; a single membrane contained time points for both α- and β^3-amino acid substrates and all no-enzyme controls. The membrane was allowed to dry and was protected with a sheet of Microseal B adhesive seals (Biorad) prior to exposure to a BAS Storage Phosphor screen. Screens were imaged on a Typhoon 9500FLA biomolecule imager and the signal intensity of each dot was quantified using ImageJ to determine the relative amount of [^32P]-ATP formed as a function of time (Ctime). Each raw value were corrected by subtracting the intensity of the dot corresponding to the appropriate no-enzyme control (Cblank) and the resulting corrected values of Ccorr (representing the relative amounts of ^32P-ATP formed) were plotted as a function of time to determine values of relative ^32P-ATP formed per minute. Those values were divided by the concentration of enzyme used, and the data was plotted as relative specific activity (^32P-ATP formed min^−1×μM^−1 enzyme) and fitted using Prism by performing nonlinear regression using the least squares method and Equation 1 to obtain RSA (relative specific activity) and KM values (Equation 1 and Table 2).\nIn Equation 1, v is the apparent relative specific activity (relative ^32P-ATP formed per minute) obtained at each substrate concentration divided by the enzyme concentration, RSA is the relative specific activity, S is the concentration of substrate, and KM is the Michaelis-Menten constant."}}}
{"substance": "E. coli GluRS (Escherichia coli K-12)", "values": [{"measurement": "Km", "setting": "N[C@@H](CCC(=O)O)C(=O)O [1]", "value": "277.1 ± 101.5", "unit": "µM"}, {"measurement": "kcat", "setting": "N[C@@H](CCC(=O)O)C(=O)O [1]", "value": "0.000767 ± 6.67e-05", "unit": "s⁻¹"}, {"measurement": "kcat/Km", "setting": "N[C@@H](CCC(=O)O)C(=O)O [1]", "value": "2.67 ± 1", "unit": "M⁻¹ s⁻¹"}, {"measurement": "Km", "setting": "N[C@@H](CCC(=O)O)C(=O)O [2]", "value": "76.4 ± 43.0", "unit": "µM"}, {"measurement": "kcat", "setting": "N[C@@H](CCC(=O)O)C(=O)O [2]", "value": "22.5 ± 3.43", "unit": "s⁻¹"}, {"measurement": "kcat/Km", "setting": "N[C@@H](CCC(=O)O)C(=O)O [2]", "value": "293000 ± 172000", "unit": "M⁻¹ s⁻¹"}]}
